Experimental data: paper PMC9371921, “Strand annealing and motor driven activities of SMARCAL1 and ZRANB3 are stimulated by RAD51 and the paralog complex” (Nucleic Acids Research, 2022)

Molecular target: the molecule itself
Experiment: mass photometry; 2 μl (50 nM) protein solution added into 18 μl protein elution buffer; movie recorded for 1 min; Refeyn 2MP mass photometer, NativeMark size marker

B1: RAD51 paralog complex RAD51B-RAD51C-RAD51D-XRCC2 (BCDX2) (complex, human)
chain 1: MGSKKLKRVGLSQELCDRLSRHQILTCQDFLCLSPLELMKVTGLSYRGVHELLCMVSRACAPKMQTAYGIKAQRSADFSPAFLSTTLSALDEALHGGVACGSLTEITGPPGCGKTQFCIMMSILATLPTNMGGLEGAVVYIDTESAFSAERLVEIAESRFPRYFNTEEKLLLTSSKVHLYRELTCDEVLQRIESLEEEIISKGIKLVILDSVASVVRKEFDAQLQGNLKERNKFLAREASSLKYLAEEFSIPVILTNQITTHLSGALASQADLVSPADDLSLSEGTSGSSCVIAALGNTWSHSVNTRLILQYLDSERRQILIAKSPLAPFTSFVYTIKEEGLVLQETTFCSVTQAELNWAPEILPPQPPEQLGLQMCHHTQLIF
chain 2: MRGKTFRFEMQRDLVSFPLSPAVRVKLVSAGFQTAEELLEVKPSELSKEVGISKAEALETLQIIRRECLTNKPRYAGTSESHKKCTALELLEQEHTQGFIITFCSALDDILGGGVPLMKTTEICGAPGVGKTQLCMQLAVDVQIPECFGGVAGEAVFIDTEGSFMVDRVVDLATACIQHLQLIAEKHKGEEHRKALEDFTLDNILSHIYYFRCRDYTELLAQVYLLPDFLSEHSKVRLVIVDGIAFPFRHDLDDLSLRTRLLNGLAQQMISLANNHRLAVILTNQMTTKIDRNQALLVPALGESWGHAATIRLIFHWDRKQRLATLYKSPSQKECTVLFQIKPQGFRDTVVTSACSLQTEGSLSTRKRSRDPEEEL
chain 3: MGVLRVGLCPGLTEEMIQLLRSHRIKTVVDLVSADLEEVAQKCGLSYKALVALRRVLLAQFSAFPVNGADLYEELKTSTAILSTGIGSLDKLLDAGLYTGEVTEIVGGPGSGKTQVCLCMAANVAHGLQQNVLYVDSNGGLTASRLLQLLQAKTQDEEEQAEALRRIQVVHAFDIFQMLDVLQELRGTVAQQVTGSSGTVKVVVVDSVTAVVSPLLGGQQREGLALMMQLARELKTLARDLGMAVVVTNHITRDRDSGRLKPALGRSWSFVPSTRILLDTIEGAGASGGRRMACLAKSSRQPTGFQEMVDIGTWGTSEQSATLQGDQT
chain 4: MCSAFHRAESGTELLARLEGRSSLKEIEPNLFADEDSPVHGDILEFHGPEGTGKTEMLYHLTARCILPKSEGGLEVEVLFIDTDYHFDMLRLVTILEHRLSQSSEEIIKYCLGRFFLVYCSSSTHLLLTLYSLESMFCSHPSLCLLILDSLSAFYWIDRVNGGESVNLQESTLRKCSQCLEKLVNDYRLVLFATTQTIMQKASSSSEEPSHASRRLCDVDIDYRPYLCKAWQQLVKHRMFFSKQDDSQSSNQFSLVSRCLKSNSLKKHFFIIGESGVEFC
notes: human RAD51B, codon-optimized for Sf9, from pFB-FLAG-RAD51Bco-10xHis-RAD51Cco; human RAD51C, codon-optimized for Sf9, from pFB-FLAG-RAD51Bco-10xHis-RAD51Cco; Expressed as a heterotetramer; by mass photometry the preparation was consistent with a dimer of the heterotetramer; also called BCDX2 complex; FLAG-BCDX2 complex; source: Sf9, co-infected with two baculoviruses, purified (Ni-NTA, then …)
stoichiometry N: 2
